This note sets out measurements from patent US20140271457A1 (AbbVie / Abbott, published 2014).

B1: DVD3116 (bispecific antibody, IgG1)
VH: EVQLVQSGAEVKKPGASVKVSCKASGYTFNNYGIIWVRQAPGQGLEWMGWINTYTGKPTYAQKFQGRVTMTTDTSTSTAYMELSSLRSEDTAVYYCARKLFNTVAVTDNAMDYWGQGTTVTVSSASTKGPEVQLVQSGAEVKKPGASVKVSCKASGYTFTTYGVSWVRQAPGQGLEWMGEIYPGNYNTYYNEKFRGRVTMTTDTSTSTAYMELRSLRSDDTAVYYCARWRTSYFSDYGYFDYWGQGTTVTVSS
VL: DIQMTQSPSSLSASVGDRVTITCRASQDIENYLNWYQQKPGKAPKLLIYYTSRLQSGVPSRFSGSGSGTDFTLTISSLQPEDFATYFCQQGNTQPPTFGQGTKLEIKRTVAAPSVFIFPPDVVMTQSPLSLPVTLGQPASISCRSSQSLVHSHGNTYLHWYQQRPGQSPRLLIYTVSNRFSGVPDRFSGSGSGTDFTLKISRVEAEDVGVYYCSQSTHVPYTFGGGTKVEIKR
notes: DVD-Ig; wt hIgG1 + kappa constants
B2: DVD3173 (bispecific antibody, IgG1)
VH: EVQLVQSGAEVKKPGASVKVSCKASGYTFNNYGIIWVRQAPGQGLEWMGWINTYTGKPTYAQKFQGRVTMTTDTSTSTAYMELSSLRSEDTAVYYCARKLFNTVAVTDNAMDYWGQGTTVTVSSGGGGSGGGGSEVQLVQSGAEVKKPGASVKVSCKASGYTFTSYWMHWVRQAPGQGLEWIGNINPKGGSNIYNEKFQGRVTMTRDTSISTAYMELSRLRSDDTAVYYCARLDYFGDSFDLWGQGTTVTVSS
VL: DIQMTQSPSSLSASVGDRVTITCRASQDIENYLNWYQQKPGKAPKLLIYYTSRLQSGVPSRFSGSGSGTDFTLTISSLQPEDFATYFCQQGNTQPPTFGQGTKLEIKRGGSGGGGSGDIQMTQSPSSLSASVGDRVTITCRASQGIRNYLNWYQQKPGKAPKLLIYYASNLEVGVPSRFSGSGSGTDYTLTISSLQPEDFATYYCQQDNRFPYTFGGGTKVEIKR
notes: as for B1
B3: DVD2683 (bispecific antibody, IgG1)
VH: EVQLVESGGGLVQPGGSLRLSCAASGFTFSNYGVTWVRQAPGKGLEWVSMIWADGSTHYASSVKGRFTISRDNSKNTLYLQMNSLRAEDTAVYYCAREWQHGPVAYWGQGTLVTVSSGGGGSGGGGSEVTLRESGPGLVKPTQTLTLTCTLYGFSLSTSDMGVDWIRQPPGKGLEWLAHIWWDDVKRYNPALKSRLTISKDTSKNQVVLKLTSVDPVDTATYYCARTVSSGYIYYAMDYWGQGTLVTVSS
VL: DIQMTQSPSSLSASVGDRVTITCRASQLVSSAVAWYQQKPGKAPKLLIYWASARHTGVPSRFSGSGSGTDFTLTISSLQPEDFATYYCQQHYKTPFTFGQGTKLEIKRGGSGGGGSGDIQMTQSPSSLSASVGDRVTISCRASQDIRNYLNWYQQKPGKAPKLLIFYTSKLHSGVPSRFSGSGSGTDYTLTISSLQPEDIATYYCQQGLTPPLTFGGGTKVEIKR
notes: as for B1
B4: DVD2733 (bispecific antibody, IgG1)
VH: EVQLVESGGGLVQPGGSLRLSCAASGFTFSNYGVEWVRQAPGKGLEWVSGIWADGSTHYADTVKSRFTISRDNSKNTLYLQMNSLRAEDTAVYYCAREWQHGPVAYWGQGTLVTVSSGGGGSGGGGSEVTLRESGPGLVKPTQTLTLTCTLYGFSLSTSDMGVDWIRQPPGKGLEWLAHIWWDDVKRYNPALKSRLTISKDTSKNQVVLKLTSVDPVDTATYYCARTVSSGYIYYAMDYWGQGTLVTVSS
VL: DIQMTQSPSSLSASVGDRVTITCKASQLVSSAVAWYQQKPGKAPKLLIYWASTLHTGVPSRFSGSGSGTDFTLTISSLQPEDFATYYCQQHYRTPFTFGQGTKLEIKRGGSGGGGSGDIQMTQSPSSLSASVGDRVTISCRASQDIRNYLNWYQQKPGKAPKLLIFYTSKLHSGVPSRFSGSGSGTDYTLTISSLQPEDIATYYCQQGLTPPLTFGGGTKVEIKR
notes: as for B1
B5: AB397 (antibody, V domains shown)
VH: EVTLRESGPGLVKPTQTLTLTCTLYGFSLSTSDMGVDWIRQPPGKGLEWLAHIWWDDVKRYNPALKSRLTISKDTSKNQVVLKLTSVDPVDTATYYCARTVSSGYIYYAMDYWGQGTLVTVSS
VL: DIQMTQSPSSLSASVGDRVTISCRASQDIRNYLNWYQQKPGKAPKLLIFYTSKLHSGVPSRFSGSGSGTDYTLTISSLQPEDIATYYCQQGLTPPLTFGGGTKVEIKR
notes: parent antibody
B6: AB398 (antibody, V domains shown)
VH: EVQLVQSGAEVKKPGASVKVSCKASGYTFTTYGVSWVRQAPGQGLEWMGEIYPGNYNTYYNEKFRGRVTMTTDTSTSTAYMELRSLRSDDTAVYYCARWRTSYFSDYGYFDYWGQGTTVTVSS
VL: DVVMTQSPLSLPVTLGQPASISCRSSQSLVHSHGNTYLHWYQQRPGQSPRLLIYTVSNRFSGVPDRFSGSGSGTDFTLKISRVEAEDVGVYYCSQSTHVPYTFGGGTKVEIKR
notes: parent antibody
B7: DVD3174 (bispecific antibody, IgG1)
VH: EVQLVQSGAEVKKPGASVKVSCKASGYTFNNYGIIWVRQAPGQGLEWMGWINTYTGKPTYAQKFQGRVTMTTDTSTSTAYMELSSLRSEDTAVYYCARKLFNTVAVTDNAMDYWGQGTTVTVSSASTKGPEVQLVQSGAEVKKPGASVKVSCKASGYTFTSYWMHWVRQAPGQGLEWIGNINPKGGSNIYNEKFQGRVTMTRDTSISTAYMELSRLRSDDTAVYYCARLDYFGDSFDLWGQGTTVTVSS
VL: DIQMTQSPSSLSASVGDRVTITCRASQDIENYLNWYQQKPGKAPKLLIYYTSRLQSGVPSRFSGSGSGTDFTLTISSLQPEDFATYFCQQGNTQPPTFGQGTKLEIKRTVAAPDIQMTQSPSSLSASVGDRVTITCRASQGIRNYLNWYQQKPGKAPKLLIYYASNLEVGVPSRFSGSGSGTDYTLTISSLQPEDFATYYCQQDNRFPYTFGGGTKVEIKR
notes: as for B1
B8: DVD3176 (bispecific antibody, IgG1)
VH: EVQLVQSGAEVKKPGASVKVSCKASGYTFNNYGIIWVRQAPGQGLEWMGWINTYTGKPTYAQKFQGRVTMTTDTSTSTAYMELSSLRSEDTAVYYCARKLFNTVAVTDNAMDYWGQGTTVTVSSASTKGPEVQLVQSGAEVKKPGASVKVSCKASGYTFTSYWMHWVRQAPGQGLEWIGNINPKGGSNIYNEKFQGRVTMTRDTSISTAYMELSRLRSDDTAVYYCARLDYFGDSFDLWGQGTTVTVSS
VL: DIQMTQSPSSLSASVGDRVTITCRASQDIENYLNWYQQKPGKAPKLLIYYTSRLQSGVPSRFSGSGSGTDFTLTISSLQPEDFATYFCQQGNTQPPTFGQGTKLEIKRTVAAPSVFIFPPDIQMTQSPSSLSASVGDRVTITCRASQGIRNYLNWYQQKPGKAPKLLIYYASNLEVGVPSRFSGSGSGTDYTLTISSLQPEDFATYYCQQDNRFPYTFGGGTKVEIKR
notes: as for B1
B9: AB399 (antibody, V domains shown)
VH: EVQLVQSGAEVKKPGASVKVSCKASGYTFTSYWMHWVRQAPGQGLEWIGNINPKGGSNIYNEKFQGRVTMTRDTSISTAYMELSRLRSDDTAVYYCARLDYFGDSFDLWGQGTTVTVSS
VL: DIQMTQSPSSLSASVGDRVTITCRASQGIRNYLNWYQQKPGKAPKLLIYYASNLEVGVPSRFSGSGSGTDYTLTISSLQPEDFATYYCQQDNRFPYTFGGGTKVEIKR
notes: parent antibody
B10: DVD3044 (bispecific antibody, IgG1)
VH: EVQLVESGGGLVQPGGSLRLSCAASGFSLTNNNVNWVRQAPGKGLEWVGGVWAGGATDYNSALKSRFTISRDNSKNTAYLQMNSLRAEDTAVYYCARDGGYSSSTLYAMDAWGQGTLVTVSSASTKGPEVQLVQSGAEVKKPGASVKVSCKASGYTFNNYGIIWVRQAPGQGLEWMGWINTYTGKPTYAQKFQGRVTMTTDTSTSTAYMELSSLRSEDTAVYYCARKLFNTVAVTDNAMDYWGQGTTVTVSS
VL: DIQMTQSPSSLSASVGDRVTITCRASEDIYNALAWYQQKPGKAPKLLIYNTDTLHTGVPSRFSGSGSGTDYTLTISSLQPEDFATYFCQHYFHYPRTFGQGTKVEIKRTVAAPDIQMTQSPSSLSASVGDRVTITCRASQDIENYLNWYQQKPGKAPKLLIYYTSRLQSGVPSRFSGSGSGTDFTLTISSLQPEDFATYFCQQGNTQPPTFGQGTKLEIKR

Some results are limits rather than exact numbers.

Recombinant Human IL-13, sequence (P35225 35-146 limits assumed): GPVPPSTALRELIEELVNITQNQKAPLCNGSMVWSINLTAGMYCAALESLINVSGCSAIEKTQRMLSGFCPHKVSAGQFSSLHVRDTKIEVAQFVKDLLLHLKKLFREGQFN

The first experiment has as its target Recombinant Human IL-13 (human, UniProt P35225 35-146, limits assumed). Description: Biacore SPR. The procedure:
The BIACORE assay (GE, Healthcare Piscataway, N.J.) determined the affinity of antibodies or DVD-Ig with kinetic measurements of on-rate and off-rate constants. Binding of antibodies or DVD-Ig proteins to a target antigen (for example, a purified recombinant target antigen) was determined by surface plasmon resonance-based measurements with a Biacore T200 using running HBS-EP+buffer from GE Healthcare at 25° C. All chemicals were obtained from GE Healthcare or otherwise from a different source as described in the text. For example, approximately 5000 RU of goat anti-mouse IgG, (Fcγ), fragment specific polyclonal antibody (Pierce Biotechnology Inc, Rockford, Ill.) diluted in 10 mM sodium acetate (pH 4.5) was directly immobilized across a CM5 research grade biosensor chip using a standard amine coupling kit according to manufacturer's instructions. Unreacted moieties on the biosensor surface were blocked with ethanolamine. Modified carboxymethyl dextran surface in flowcell 1 was used as a reference surface. Rate constants were derived by making kinetic binding measurements at different antigen concentrations ranging from 0.8-100 nM. Binding was recorded as a function of time and kinetic rate constants were calculated. In this assay, association rate was evaluated for 5 min and dissociation was monitored for 10 min. For kinetic screening analysis, rate equations derived from the 1:1 binding model were fitted simultaneously to association and dissociation phases of all injections (using global fit analysis with Rmax fit locally to account for capture variations) with the use of Biaevaluation software. Purified antibodies or DVD-Ig proteins were diluted in HEPES-buffered saline for capture across goat anti-mouse IgG specific reaction surfaces. Antibodies or DVD-Ig proteins to be captured as a ligand were injected over reaction matrices at a flow rate of 5 μl/minute. The association and dissociation rate constants, kₒₙ (M⁻¹ s⁻¹) and koff (s⁻¹) were determined under a continuous flow rate of 50 μl/minute. Rate constants were derived by making kinetic binding measurements at different antigen concentrations ranging from 0.8-100 nM. Binding was recorded as a function of time and kinetic rate constants were calculated. In this assay, association rate was evaluated for 5 min and dissociation was monitored for 10 min.
Turning to B1, the Kd was < 0.017 nM, the koff is < 1e-06 s⁻¹ and the kon is 58000 M⁻¹ s⁻¹.
For the molecule B2, the Kd was found to be 0.37 nM, the off-rate (koff) was found to be 8.8e-05 s⁻¹ and the on-rate constant (kon) amounted to 240000 M⁻¹ s⁻¹.
On the same counts, the results for B3 are 0.87 nM, 5.9e-05 s⁻¹ and 68000 M⁻¹ s⁻¹.
As for B4, the equilibrium dissociation constant (Kd) came to 1.1 nM, the koff came out at 8.6e-05 s⁻¹ and the on-rate (kon) turned out to be 79000 M⁻¹ s⁻¹.
For B5, the equilibrium dissociation constant (Kd) turned out to be 0.13 nM, the off-rate constant (koff) came out at 0.00012 s⁻¹ and the kon was determined as 920000 M⁻¹ s⁻¹.
For the molecule B6, the Kd was determined as 0.045 nM, the off-rate (koff) was 2.8e-05 s⁻¹ and the kon is 630000 M⁻¹ s⁻¹.
On to B7, for which the equilibrium dissociation constant (Kd) worked out at 0.9 nM, the koff was 7.7e-05 s⁻¹ and the kon came to 85000 M⁻¹ s⁻¹.
For the molecule B8, the Kd is 0.087 nM, the off-rate constant (koff) was 4.8e-05 s⁻¹ and the kon came to 550000 M⁻¹ s⁻¹.
In the case of B9, the equilibrium dissociation constant (Kd) was found to be 0.019 nM, the koff was found to be 6.4e-05 s⁻¹ and the kon was 3.4e+06 M⁻¹ s⁻¹.

In another experiment the target is Recombinant Human TNF-α/TNFSF1A (human, UniProt P01375 77-233). Description: cell-based or functional assay.
Recombinant Human TNF-α/TNFSF1A, sequence (P01375 77-233 limits assumed): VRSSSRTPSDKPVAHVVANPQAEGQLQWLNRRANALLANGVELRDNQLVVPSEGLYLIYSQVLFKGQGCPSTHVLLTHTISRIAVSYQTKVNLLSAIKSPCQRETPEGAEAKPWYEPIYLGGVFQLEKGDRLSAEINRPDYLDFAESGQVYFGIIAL
Turning to B10, the “C-Terminal VD huTNFα Neutralization Assay IC50” value is 0.673 nM.
